The target in the assay is acetylcholine receptor (Homo sapiens, UniProt P02708). The experiment in a line: SPR binding affinity (RU) of optimized 5mer/6mer/7mer peptides, Examples 6-7. The essentials:
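Peptides were tested at 10 μM by surface plasmon resonance against the receptor, with binding reported as response units. Library sequences were built from frequent (top) or infrequent (bottom) amino acid combinations in 5mer, 6mer-1 and 6mer-2 series.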
For orientation: Surface plasmon resonance follows binding to a sensor surface in real time, without labels.

Setting [1] is: SPR, Resonance Units; peptides tested at 10 μM; 6mer-1 Bottom sequence.
Setting [2] is: SPR, peptides tested at 10 μM; 6mer-1 Bottom sequence.
[3] abbreviates: SPR, peptides tested at 10 μM; 6mer-1 Top sequence.
[4] abbreviates: 6mer-2 Top sequence; SPR; peptides tested at 10 μM.

acetylcholine receptor, sequence (P02708 21-457): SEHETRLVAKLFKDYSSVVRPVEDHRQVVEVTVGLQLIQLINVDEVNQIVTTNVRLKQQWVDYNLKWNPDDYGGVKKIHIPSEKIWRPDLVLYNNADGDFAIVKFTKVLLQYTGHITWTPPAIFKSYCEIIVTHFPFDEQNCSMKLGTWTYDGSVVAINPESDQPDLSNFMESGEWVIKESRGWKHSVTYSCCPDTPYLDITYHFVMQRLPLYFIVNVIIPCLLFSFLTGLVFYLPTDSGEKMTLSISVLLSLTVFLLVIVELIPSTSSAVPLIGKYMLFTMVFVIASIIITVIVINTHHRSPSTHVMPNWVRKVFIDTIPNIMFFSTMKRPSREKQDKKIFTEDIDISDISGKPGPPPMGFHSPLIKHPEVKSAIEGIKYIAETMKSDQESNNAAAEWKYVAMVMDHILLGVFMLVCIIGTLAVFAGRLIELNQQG

As for 6mer-1-1191 (RKYTKK), the Binding affinity under setting [1] is 39 Ru. Same read-out and setting: next, 6mer-1-1192 (RKDDDR): 36 Ru; 6mer-1-1193 (KKPTNK): 33 Ru; 6mer-1-1194 (KKTHAK): 22 Ru. Still for that read-out and setting: next, 6mer-1-1195 (KRDEDK): 25 Ru; 6mer-1-1196 (KKTTGR): 25 Ru; 6mer-1-1197 (KRPMAK): 21 Ru. With 6mer-1-1198 (RRATER), the Binding affinity under setting [2] turned out to be 28 Ru. Still for that read-out and setting: next, 6mer-1-1199 (KKTNKR): 39 Ru; 6mer-1-1200 (RKACEK): 21 Ru.

As to 6mer-1-1225 (RKLICK), the Binding affinity (6mer-1 Top sequence; SPR; peptides tested at 10 μM) is 142 Ru. For 6mer-1-1405 (KKVQTR), the Binding affinity under setting [3] was determined as 148 Ru.

Consider 6mer-1-1458 (RKGQLK), for which the Binding affinity under setting [3] came out at 139 Ru. As to 6mer-2-1 (RRRLKK), the Binding affinity under setting [4] was 131 Ru.

On to 6mer-2-2 (RWYLKR), for which the Binding affinity under setting [4] was 139 Ru. Same read-out and setting: next, 6mer-2-3 (KVYSRK): 148 Ru; 6mer-2-4 (RSYYRR): 125 Ru. Still for that read-out and setting: next, 6mer-2-5 (RWVSKR): 124 Ru; 6mer-2-6 (KSICRR): 122 Ru; 6mer-2-7 (KSRCRK): 126 Ru. The same measure, in the same setting: next, 6mer-2-8 (KSLQKK): 135 Ru; 6mer-2-9 (KLICRK): 139 Ru.

Consider 6mer-2-10 (KVFSKK), for which the Binding affinity under setting [4] was determined as 124 Ru. On the same count and under the same terms, next, 6mer-2-11 (RQYQRR): 121 Ru; 6mer-2-12 (RQFQRK): 147 Ru; 6mer-2-13 (RQYTRK): 123 Ru. Same read-out and setting: next, 6mer-2-14 (RGRQKK): 153 Ru.

Regarding 6mer-2-15 (KQVRKR), under setting [4], the Binding affinity came out at 133 Ru. Still for that read-out and setting: next, 6mer-2-16 (KGVCRR): 121 Ru. Same read-out and setting: next, 6mer-2-17 (RWVTRR): 142 Ru. Same read-out and setting: next, 6mer-2-18 (RSILRR): 124 Ru.

As for 6mer-2-19 (RSFSKK), the Binding affinity under setting [4] is 135 Ru. Consider 6mer-2-20 (RVQTRR), for which the Binding affinity under setting [4] is 137 Ru. The same measure, in the same setting: next, 6mer-2-21 (RLFTRK): 141 Ru; 6mer-2-22 (RQIRKK): 124 Ru; 6mer-2-23 (RWVRKK): 148 Ru. Consider 6mer-2-24 (KGIQRK), for which the Binding affinity under setting [4] turned out to be 141 Ru. On the same count and under the same terms, next, 6mer-2-25 (KQVQKR): 148 Ru; 6mer-2-26 (RWRRKK): 121 Ru; 6mer-2-27 (KVIRRK): 128 Ru. The same measure, in the same setting: next, 6mer-2-28 (KVLSRK): 142 Ru. As for 6mer-2-29 (RSQRKR), under setting [4], the Binding affinity worked out at 142 Ru. Still for that read-out and setting: next, 6mer-2-30 (RQFYKK): 139 Ru; 6mer-2-31 (KSYQRK): 121 Ru; 6mer-2-32 (RRLCRK): 139 Ru. The same measure, in the same setting: next, 6mer-2-33 (RQFRKK): 142 Ru; 6mer-2-34 (KVFRRK): 124 Ru; 6mer-2-35 (RWISRK): 148 Ru. Same read-out and setting: next, 6mer-2-36 (RRLQKK): 131 Ru; 6mer-2-37 (KLLYRK): 148 Ru; 6mer-2-38 (RSYYKR): 136 Ru. Take 6mer-2-39 (RWRYRK): under setting [4], the Binding affinity is listed as 137 Ru. As to 6mer-2-40 (RRYRKK), the Binding affinity under setting [4] came out at 153 Ru. Still for that read-out and setting: next, 6mer-2-41 (KQLCKR): 142 Ru.

The values above are taken from US20250011363A1, “OPTIMIZED SHORTENED PEPTIDE THAT BINDS TO ACETYLCHOLINE RECEPTOR, AND USE THEREOF” (SKINMED CO., LTD., priority 2021, published 2025).
